Experimental data published in PMC7430671.
Where a chain is given by its changes, count along the chain named.

Key:
[1] = target: T1, RapZCTD (Escherichia coli) (UniProt P0A894); experiment: EMSA; conditions: EMSA on non-denaturing PAA gels, phospho-imaging; buffer, pH and temperature not given here (as in Göpel 2016; Durica-Mitic and Görke 2019)
T1 sequence: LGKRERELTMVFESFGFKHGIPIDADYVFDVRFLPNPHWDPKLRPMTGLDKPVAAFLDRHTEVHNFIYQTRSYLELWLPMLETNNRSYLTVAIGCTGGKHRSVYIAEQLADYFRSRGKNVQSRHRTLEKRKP

[2] = target: T2, RapZ1-279 (purified) del280-284 (Escherichia coli) (UniProt P0A894); experiment: EMSA; conditions: EMSA on non-denaturing PAA gels, phospho-imaging; buffer, pH and temperature not given here (as in Göpel 2016; Durica-Mitic and Görke 2019)
T2 sequence: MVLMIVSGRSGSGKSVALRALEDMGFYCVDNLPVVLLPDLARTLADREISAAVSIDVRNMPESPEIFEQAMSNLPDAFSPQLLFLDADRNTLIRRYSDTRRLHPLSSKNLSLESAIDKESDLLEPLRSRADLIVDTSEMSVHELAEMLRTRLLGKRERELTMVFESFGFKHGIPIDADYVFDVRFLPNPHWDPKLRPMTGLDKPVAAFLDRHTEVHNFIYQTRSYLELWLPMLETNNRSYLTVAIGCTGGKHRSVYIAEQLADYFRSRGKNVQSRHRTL

[3] = target: T3, RapZCTD lacking the 5 C-terminal residues del280-284 (Escherichia coli) (UniProt P0A894); experiment: EMSA; conditions: EMSA on non-denaturing PAA gels, phospho-imaging; buffer, pH and temperature not given here (as in Göpel 2016; Durica-Mitic and Görke 2019)
T3 sequence: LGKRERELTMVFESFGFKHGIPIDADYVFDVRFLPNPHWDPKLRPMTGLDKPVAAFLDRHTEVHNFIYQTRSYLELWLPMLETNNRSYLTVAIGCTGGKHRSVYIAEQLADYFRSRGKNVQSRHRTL

[4] = target: T4, RapZquad (purified) K270A;K281A;R282A;K283A (Escherichia coli) (UniProt P0A894); experiment: EMSA; conditions: EMSA on non-denaturing PAA gels, phospho-imaging; buffer, pH and temperature not given here (as in Göpel 2016; Durica-Mitic and Görke 2019)
T4 sequence: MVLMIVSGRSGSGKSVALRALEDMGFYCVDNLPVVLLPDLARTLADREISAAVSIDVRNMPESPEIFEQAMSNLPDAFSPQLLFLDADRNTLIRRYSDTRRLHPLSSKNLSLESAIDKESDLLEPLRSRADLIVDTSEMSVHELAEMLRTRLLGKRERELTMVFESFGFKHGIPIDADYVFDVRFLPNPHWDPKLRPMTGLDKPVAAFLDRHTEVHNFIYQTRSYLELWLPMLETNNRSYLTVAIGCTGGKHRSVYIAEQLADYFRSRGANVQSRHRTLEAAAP

[5] = target: T5, RapZCTDquad K270A;K281A;R282A;K283A (Escherichia coli) (UniProt P0A894); experiment: EMSA; conditions: EMSA on non-denaturing PAA gels, phospho-imaging; buffer, pH and temperature not given here (as in Göpel 2016; Durica-Mitic and Görke 2019)
T5 sequence: T1 sequence with K118A, K129A, R130A, K131A

[6] = target: RapZ 1-279 T278G L279G (T25 fusion); experiment: BACTH assay (self-interaction; β-galactosidase activity); conditions: bottom panel; same RapZ1-279 variant fused to T18 and to T25; mean ± SD, n ≥ 2; parent: est. 4100; read off a plot

Chain of RapZ_(1–279), BACTH fusion (P0A894 whole entry T278G/L279G, looked up, the tested form may be a part): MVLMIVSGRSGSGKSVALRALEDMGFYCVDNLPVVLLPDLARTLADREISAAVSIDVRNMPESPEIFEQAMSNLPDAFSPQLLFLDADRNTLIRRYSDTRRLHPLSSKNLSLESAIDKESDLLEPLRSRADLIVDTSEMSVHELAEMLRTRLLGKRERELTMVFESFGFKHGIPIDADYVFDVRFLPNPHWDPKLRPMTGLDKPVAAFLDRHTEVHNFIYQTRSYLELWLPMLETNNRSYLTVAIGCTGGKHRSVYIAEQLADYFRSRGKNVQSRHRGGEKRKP

response [6] | Substance | binding [1] | binding [2] | binding [3] | binding [4] | binding [5]
– | GGGAGAGUAGAUGCUCAUUCCAUCUCUUAUGUUCGCCUUAGUGCCUCAUAAACUCCGGAAUGACGCAGAGCCGUUUACGGUGCUUAUCGUCCACUGACAGAUGUCGCUUAUGCCUCAUCAGACACCAUGGACACAACGUUGAGUGAAGCACCCACUUGUUGUCAUACAGACCUGUUUUAACGCCUGCUCCGUAAUAAGAGCAGGCGUUUUUUU [GlmZ sRNA (in vitro transcript)] | binds | binds more weakly | no binding | no binding | no binding
3600 Miller units | RapZ_(1–279), BACTH fusion (from UniProt P0A894) T278G; L279G | – | – | – | – | –
